Experimental findings from US20060104978A1, “Methods and compositions for PDGF-C activation and inhibition” (LUDWIG INSTITUTE FOR CANCER RESEARCH, priority 2003, published 2006) are described below.

The target in this test is latent PDGF-DD (Homo sapiens, UniProt Q9GZP0). Description: In vitro cleavage of recombinant latent PDGF-DD with purified tPA. As to conditions: 0.2-20 μg/ml tPA, 4 hours at 37° C., CNBr activated fibrinogen. The format is biochemical. Details: Recombinant His6-tagged human PDGF-CC species and full-length PDGF-DD were expressed; made in house. The source says:
A cotransfection assay was established to identify serine proteases able to cleave and activate latent PDGF-CC. Expression plasmids encoding the relevant enzymes and full-length PDGF-C were cotransfected into COS-1 cells, and aliquots of the conditioned media from the transfectants were subjected to SDS-PAGE and immunoblotting using antibodies to the growth factor domain of PDGF-C. […] As a specificity control, the ability of tPA and NT to use full-length PDGF-DD as the substrate in the cotransfection assay was analysed. […] One difference in the latter results, as compared with the results from the cotransfection assay, was that purified tPA generated a second intermediate species of 32 kDa using latent PDGF-CC as the substrate. It is possible that this intermediate is the result of digestion by plasmin contamination in the tPA preparation, since the size of the fragment is similar to that of plasmincleaved PDGF-CC previously reported (Li et al, 2000).
Recombinant latent PDGF-CC and PDGF-DD were digested with human tPA in 100 mM Tris-HCl pH 7.5, 0.1% Tween 20, and 0.1 mg/ml CNBr activated fibrinogen (Sigma) for 4 hours at 37° C. using 0.2-20 μg/ml tPA purified from human melanoma cells (T7776, Sigma). The digestions were analyzed by SDS-PAGE under reducing conditions and immunoblotted using affinity-purified antibodies against PDGF-C and PDGF-D, respectively (see above).

For “tPA: tissue plasminogen activator, secreted serine protease; expressed, purified from human melanoma cells or recombinant”, the “cleavage of recombinant latent PDGF-DD by purified tPA” value was “but not PDGF-DD, is a substrate for tPA”.
